The text below walks through data of PMC8219380, “The discriminatory power of the T cell receptor” (eLife, 2021).

Values joined by “and” are separate entries in the source; they are usually repeats but may differ in a detail not shown here. Equal values may be shown once.

In assay [1] the target is NY-ESO-1 (peptide variant NYE 5F) peptide on HLA-A*02:01 (human). Nature of the assay: SPR at 37°C, new method with Bmax constrained by the W6/32 standard curve; soluble, other.
For assay [2], the target named is NY-ESO-1 (NYE 9V: heteroclitic variant of the wild-type NYE-ESO 157–165 9C peptide) peptide on HLA-A*02:01 (human). Nature of the assay: SPR at 37°C (Biacore T200), soluble 1G4 injected over immobilised biotinylated pMHC; standard method with fitted Bmax; Figure 1A–C left column, which the legend names NYE 9V; soluble, other.
The target of assay [3] is NYE 9V peptide on HLA-A*02:01. Kind of assay: SPR. Background: SPR reads the build-up and loss of mass on a sensor chip optically.
The target of assay [4] is NYE 3Y peptide on HLA-A*02:01. Nature of the assay: SPR.
The target in assay [5] is NYE 5Y peptide on HLA-A*02:01. Nature of the assay: SPR.
In assay [6] the target is NYE 6T peptide on HLA-A*02:01. Nature of the assay: SPR.
Assay [7] concerns the target NYE 4A peptide on HLA-A*02:01. Kind of assay: SPR.
Assay [8] concerns the target NYE 5F peptide on HLA-A*02:01. Nature of the assay: SPR.
For assay [9], the target named is NYE 9V peptide on HLA-A*02:01 (pMHC). Kind of assay: SPR.
The target in assay [10] is NYE 3A peptide on HLA-A*02:01. Kind of assay: SPR.
The target of assay [11] is NYE 5F peptide on HLA-A*02:01. Nature of the assay: SPR; 37°C.
Assay [12] has as its target NYE 9V peptide on HLA-A*02:01. Kind of assay: SPR; Bmax fitted, 37°C.
In assay [13] the target is NYE 5F peptide on HLA-A*02:01. Nature of the assay: SPR; Bmax fitted, 37°C.
Assay [14] deals with NYE 9V peptide on HLA-A*02:01. Nature of the assay: SPR; Bmax constrained, 37°C.
Assay [15] addresses NYE 5F peptide on HLA-A*02:01. Nature of the assay: SPR; Bmax constrained, 37°C.
The target in assay [16] is Tax 5H8A peptide on HLA-A*02:01 (human | HTLV-1). Nature of the assay: SPR.
Assay [17] addresses Tax 6V peptide on HLA-A*02:01 (human | HTLV-1). Kind of assay: SPR.
Assay [18] deals with Tax 7R peptide on HLA-A*02:01 (human | HTLV-1). Kind of assay: SPR.
For assay [19], the target named is Tax 5H peptide on HLA-A*02:01 (human | HTLV-1). Nature of the assay: SPR.
The target in assay [20] is Tax 8A peptide on HLA-A*02:01 (human | HTLV-1). Nature of the assay: SPR.
Assay [21] deals with Tax 5W peptide on HLA-A*02:01 (human | HTLV-1). Nature of the assay: SPR.
The target in assay [22] is Tax 5F peptide on HLA-A*02:01 (human | HTLV-1). Nature of the assay: SPR.
Assay [23] addresses Tax 8F peptide on HLA-A*02:01 (human | HTLV-1). Nature of the assay: SPR.
Assay [24] concerns the target Tax 4A peptide on HLA-A*02:01 (human | HTLV-1). Kind of assay: SPR.
The target of assay [25] is Tax 1V peptide on HLA-A*02:01 (human | HTLV-1). Kind of assay: SPR.
In assay [26] the target is Tax 4A8A peptide on HLA-A*02:01 (human | HTLV-1). Kind of assay: SPR.
Assay [27] addresses Tax 1A peptide on HLA-A*02:01 (human | HTLV-1). Nature of the assay: SPR.
The target of assay [28] is Tax 7T peptide on HLA-A*02:01 (human | HTLV-1). Kind of assay: SPR.
Assay [29] has as its target Tax 7H peptide on HLA-A*02:01 (human | HTLV-1). Kind of assay: SPR.
In assay [30] the target is Tax 5F peptide on HLA-A*02:01 (human | HTLV-1). Kind of assay: SPR; 37°C.
In another assay the target is 1G4 TCR. Nature of the assay: SPR, 1G4 TCR binding to immobilised pMHC (steady state, 37°C). Also noted: species or system human. Conditions: Bmax fitted, read-out: KD (standard protocol).
The test system of assay [31] is IL-2 receptor subunit β (IL-2Rb). Kind of assay: Discrimination power from published data: IL-2 receptor. Conditions: n 4, ref Levin 2012. An excerpt:
The broad method was to obtain a measure of ligand potency from each study. […] If not explicitly provided, we estimated ligand potency as PX , which was defined by the concentration of ligand that produced X response. To do this, we drew a horizontal line at X on a provided dose-response graph and estimated the ligand concentration where the data intercepted the horizontal line. The disadvantage with this method is that ligand potency was estimated based on the single representative graph provided in the study.
Each study often contained or cited a study that contained estimates of KD or koff for the specific TCR/pMHC interactions used in the study. We only included studies where monomeric SPR binding data was available to avoid multimeric binding parameters (e.g. when using tetramers). However, when analysing discrimination by other non-TCR receptors, we included binding data from various methods (e.g. SPR, radio labelled ligands) provided they were monomeric measurements. The use of SPR is important for weak interactions, such as TCR/pMHC, but various methods are available for higher-affinity interactions.
The plot of potency over KD or k off was fit using linear regression on log-transformed axes. We reported the slope of the fit (i.e. the discrimination power, α), the goodness-of-fit measure ( R^2 ), and the p-value for the null hypothesis that the slope is zero (i.e. α=0 ). […]

Assay [32] relates to CD8+ T cell blasts expressing 1G4 TCR. Kind of assay: TCR downregulation (tetramer gMFI), plate-bound pMHC + CD58. The class given is cell-based, human. The source says:
Figure 4. The T cell discriminatory power is enhanced by ligation of the receptors CD2 or LFA-1. (A) Protocol for stimulation of CD8^+ T cell blasts with plate-bound recombinant ligands. (B, C) Example dose-response curve for 1G4 T cell blasts stimulated with (B) peptides presented on major histocompatibility complex (pMHC) alone or (C) in combination with CD58 or ICAM1. (D, E) Potency derived from dose-response curves over KD showing the power function fit (D) with pMHC alone or (E) in combination with CD58 or ICAM1. (F) Comparison of the fitted discrimination power (α) and (G) fitted sensitivity ( C ). Shown are geometric means with each dot representing an independent experiment (n = 4–5). (F) In grey the result of a statistical test vs. 1 is shown (p=0.09 for pMHC, p=0.002 for CD58 and ICAM1, p=0.0002 for U87/1G4). Figure 4—source data 1. CD69 dose-response data for Figure 4. […]
For stimulation, T cells were counted, washed once to remove excess IL2, and 75,000 cells in 180–200 μl complete RMPI were dispensed per well. […] Cells were stained for flow cytometry and analysed immediately, or fixed and stored for up to 1 day. […]
Tetramers were produced in-house using refolded monomeric, biotinylated pMHC, and streptavidin-PE (Biolegend) at a 1:4 molar ratio. […] Samples were analysed using a BD X-20 flow cytometer, and data analysis was performed using FlowJo v10 (BD Biosciences).

Take 1G4 TCR: the results for the Kd in [1] and in assay [2] were 1310 µM and 7 µM, respectively.

As for soluble 1G4 αβ TCR, the Kd amounted to 4.93 µM in assay [3] (Bmax constrained (new method)); 7.97 µM in assay [3] (Bmax fitted (standard method)); 47.3 µM in assay [4] (Bmax constrained (new method)); 36.3 µM in assay [4] (Bmax fitted (standard method)); 433 µM in assay [5] (Bmax constrained (new method)); 191 µM in assay [5] (Bmax fitted (standard method)). Besides, the equilibrium dissociation constant (Kd) is 162 µM in assay [6] (Bmax constrained (new method)); 84.6 µM in [6] (Bmax fitted (standard method)); 299 µM in [7] (Bmax constrained (new method)); 157 µM in assay [7] (Bmax fitted (standard method)); 756 µM in [8]; 7 µM in assay [9]. The dissociation constant Kd in [10] (Bmax constrained (new method)) is 6.28 µM; in assay [10] (Bmax fitted (standard method)), 7.04 µM; in assay [11], 1310 µM; in assay [12], 6.8 µM; in assay [13], 198 µM; in assay [14], 4.6 µM. The molecule further came in with a Kd in [15] of 1590 µM.

soluble A6 αβ TCR: the Kd in assay [16] is 2820 µM and 2320 µM; in [17] it was 13.5 µM and 21.1 µM; in assay [18], 11.5 µM and 21.4 µM; in assay [19], 36.2 µM and 56.1 µM; in assay [20] it was 599 µM and 565 µM; in [21], 6.08 µM and 5 µM. The Kd in [22] is 3.36 µM and 2.67 µM; in assay [23] it was 37.1 µM and 60 µM; in [24] it was 72.5 µM and 118 µM; in [25], 6.92 µM and 7.97 µM; in assay [26], 194 µM and 1870 µM; in assay [27], 4.25 µM and 6.5 µM. The equilibrium dissociation constant (Kd) in assay [28] is 3.42 µM and 2.8 µM; in assay [29], 45.8 µM and 67.8 µM; in assay [30], 3 µM.

With “NY-ESO-1 peptide: cognate NY-ESO-1 peptide of the 1G4 TCR”, the Kd at 1G4 TCR was ~7 µM.

B1: IL-2R beta (protein, UniProt P14784 27-551, looked up)
Interleukin-2 receptor …: AVNGTSQFTCFYNSRANISCVWSQDGALQDTSCQVHAWPDRRRWNQTCELLPVSQASWACNLILGAPDSQKLTTVDIVTLRVLCREGVRWRVMAIQDFKPFENLRLMAPISLQVVHVETHRCNISWEISQASHYFERHLEFEARTLSPGHTWEEAPLLTLKQKQEWICLETLTPDTQYEFQVRVKPLQGEFTTWSPWSQPLAFRTKPAALGKDTIPWLGHLLVGLSGAFGFIILVYLLINCRNTGPWLKKVLKCNTPDPSKFFSQLSSEHGGDVQKWLSSPFPSSSFSPGGLAPEISPLEVLERDKVTQLLLQQDKVPEPASLSSNHSLTSCFTNQGYFFFHLPDALEIEACQVYFTYDPYSEEDPDEGVAGAPTGSSPQPLQPLSGEDDAYCTFPSRDDLLLFSPSLLGGPSPPSTAPGGSGAGEERMPPSLQERVPRDWDPQPLGPPTPGVPDLVDFQPPPELVLREAGEEVPDAGPREGVSFPWSRPPGQGEFRALNARLPLNTDAYLSLQELQGQDPTHLV
For the molecule B1, the “Power (discrimination power)” value in [31] (ID 1, output CD25 – pSTAT5 (NK cells)) is listed as 0.546; in [31] (ID 2, output CD25 – %pSTAT5 (T cells)), 0.743.

B2: CD58: soluble extracellular domain of human CD58, the ligand to CD2 (protein, UniProt P19256 29-215, looked up)
extracellular domain: FSQQIYGVVYGNVTFHVPSNVPLKEVLWKKQKDKVAELENSEFRAFSSFKNRVYLDTVSGSLTIYNLTSSDEDEYEMESPNITDTMKFFLYVLESLPSPTLTCALTNGSIEVQCMIPEHYNSHRGLIMYSWDCPMEQCKRNSTSIYFKMENDLPQKIQCTLSNPLFNTTSSIILTTCIPSSGHSRHR
modifications: extracellular domain
notes: soluble extracellular domain of human CD58, the ligand to CD2
B2: the TCR downregulation entry in assay [32] is reported as “increased TCR downregulation”.

By Kd is commonly meant the concentration at which binding is half-saturated.
